Biological target: T1, recombinant human CD93 protein (R&D Systems) (human, UniProt Q9NPY3 24-580)
T1 sequence (looked up): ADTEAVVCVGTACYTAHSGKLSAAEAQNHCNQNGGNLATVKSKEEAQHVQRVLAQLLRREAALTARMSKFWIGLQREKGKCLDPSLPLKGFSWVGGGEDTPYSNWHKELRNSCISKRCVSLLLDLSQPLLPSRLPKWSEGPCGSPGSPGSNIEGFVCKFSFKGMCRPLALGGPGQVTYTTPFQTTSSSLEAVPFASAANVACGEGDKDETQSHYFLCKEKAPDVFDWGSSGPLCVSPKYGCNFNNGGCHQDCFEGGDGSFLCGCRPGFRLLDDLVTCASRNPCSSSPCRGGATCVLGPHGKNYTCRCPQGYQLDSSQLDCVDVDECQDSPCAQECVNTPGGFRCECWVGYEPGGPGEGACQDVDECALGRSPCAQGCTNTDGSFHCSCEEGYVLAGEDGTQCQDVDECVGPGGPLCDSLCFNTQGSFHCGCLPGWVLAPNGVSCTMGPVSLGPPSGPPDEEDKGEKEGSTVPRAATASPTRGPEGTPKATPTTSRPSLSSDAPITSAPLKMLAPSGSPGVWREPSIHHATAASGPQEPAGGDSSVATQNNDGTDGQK
Experiment: MST

B1: IGFBP7 protein (R&D Systems), labelled for microscale thermophoresis (ligand, human, UniProt Q16270 27-282, looked up)
chain: SSSDTCGPCEPASCPPLPPLGCLLGETRDACGCCPMCARGEGEPCGGGGAGRGYCAPGMECVKSRKRRKGKAGAAAGGPGVSGVCVCKSRYPVCGSDGTTYPSGCQLRAASQRAESRGEKAITQVSKGTCEQGPSIVTPPKDIWNVTGAQVYLSCEVIGIPTPVLIWNKVKRGHYGVQRTELLPGDRDNLAIQTRGGPEKHEVTGWVLVSPLSKEDAGEYECHASNSQGQASASAKITVVDALHEIPVKKGEGAEL
modifications: fluorescent dye RED-tris-NTA 2nd Generation (Monolith His-Tag Labeling kit)
B1 showed a Kd of 53.1 ± 20.2 nM.

Reference: article PMC8749958 (Science translational medicine, 2021)
